The source of these data is patent US20210261685A1.

For the assay, the target named is human MerTK endogenously expressed on cells (SK-MEL-5 cells; human macrophages) (human) (UniProt Q12866). The experiment in a line: cell-based or functional assay.
Chain of human MerTK endogenously expressed on cells (SK-MEL-5 cells; human macrophages) (human) (Q12866 21-999 limits assumed): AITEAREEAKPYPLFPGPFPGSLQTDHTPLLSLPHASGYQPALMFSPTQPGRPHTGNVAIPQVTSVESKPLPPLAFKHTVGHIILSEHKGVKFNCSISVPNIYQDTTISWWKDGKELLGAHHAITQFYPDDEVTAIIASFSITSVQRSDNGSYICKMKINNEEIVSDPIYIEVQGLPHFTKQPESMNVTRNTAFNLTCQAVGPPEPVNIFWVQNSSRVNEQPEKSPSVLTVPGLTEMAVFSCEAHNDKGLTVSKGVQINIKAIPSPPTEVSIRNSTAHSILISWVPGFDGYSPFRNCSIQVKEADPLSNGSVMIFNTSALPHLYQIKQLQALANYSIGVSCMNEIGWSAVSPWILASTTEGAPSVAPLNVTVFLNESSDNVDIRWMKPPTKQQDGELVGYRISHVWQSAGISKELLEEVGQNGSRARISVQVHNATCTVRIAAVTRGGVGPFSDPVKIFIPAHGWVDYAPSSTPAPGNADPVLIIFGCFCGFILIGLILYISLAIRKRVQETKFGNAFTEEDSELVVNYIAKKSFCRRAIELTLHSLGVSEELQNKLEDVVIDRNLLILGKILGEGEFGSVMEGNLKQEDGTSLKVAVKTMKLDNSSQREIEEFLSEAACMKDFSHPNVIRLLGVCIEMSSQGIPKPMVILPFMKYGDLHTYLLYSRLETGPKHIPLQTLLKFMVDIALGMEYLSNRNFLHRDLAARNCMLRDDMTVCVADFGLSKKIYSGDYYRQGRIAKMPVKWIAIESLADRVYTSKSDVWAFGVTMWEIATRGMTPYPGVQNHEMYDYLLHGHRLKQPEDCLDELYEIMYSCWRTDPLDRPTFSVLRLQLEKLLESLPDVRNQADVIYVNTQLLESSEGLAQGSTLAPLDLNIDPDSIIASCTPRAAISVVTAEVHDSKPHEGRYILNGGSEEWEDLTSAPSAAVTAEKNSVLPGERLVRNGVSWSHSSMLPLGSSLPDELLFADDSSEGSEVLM

B1: MTK-22 (antibody, human IgG1, V domains shown)
VH: QVQLQQPGADLVEPGASVKLSCKASGYTFTSYWMHWVKQRPGQGLEWIGEIDPSDSSSNYNQKFKGKATLTVDKSSSTAYMHLNSLTSEDSAVYYCARRYYYGSLYFDNWGQGTTLTVSS
VL: DVVMTQSHKFMSTSVGDRVSITCKASQDVGTAIAWYQQKPGQSPKLLIYWASTRHTGVPDRFTGSRSGTVFTLTISNVQSEDLADYFCQQYTSYPLTFGSGTKLEIK
As for B1, the Gas6-mediated pAKT activity, average IC50, human M2c macrophages turned out to be 0.531 nM.
